Test results taken from paper PMC7847540, “ClpX Is Essential and Activated by Single-Strand DNA Binding Protein in Mycobacteria” (Journal of Bacteriology, 2020).

Target: the molecule itself
Assay: size-based filtration (300-kDa cutoff filter)

B1: N-terminally 6×His-tagged truncated form of ClpX (lacking the first 60 amino acids) (enzyme)
chain: not shown
notes: ClpX ATPase, M. tuberculosis, lacking the first 60 amino acids; also called hexameric ClpX
In the case of B1, the “stoichiometry N” value is reported as 6.
